These results are taken from the RNAGym collection of RNA variant scans (doi:10.7554/elife.80360).

The labels stand for the following.
B1: Hammerhead Ribozyme (parent)
chain: ACCGGAUGUGCUUUCCGGUCUGAUGAGUCCGUGAGGACGAAACAG

The data set covers variants of B1. Put plainly: self-cleavage, relative activity (ratio to wild type); higher = more cleavage; co-transcriptional.
In the case of ACCGGAGGUGCUUUCCGGUCUGAUGAGUCCGUGAGGAUGAAACAG, the self-cleavage was determined as 1.4.
The result for ACCGGAGGUGCUUUCCGGUCUGAUGAGUCCGUGAGGAGGAAACAG reads 0.521.
The same measure for ACCGGAGGUGCUUUCCGGUCUGAUGAGUCCGUGAGGAAGAAACAG: 0.502; for ACCGGAGGUGCUUUCCGGUCUGAUGAAUCCGUGAGGACGAAACAG: 0.81; for ACCGGAGGUGCUUUCCGGUCUGAUGACUCCGUGAGGACGAAACAG: 0.763.
The same measure for ACCGGAGGUGCUUUCCGGUCUGAUGAUUCCGUGAGGACGAAACAG: 0.511; for ACCGGAGGUGCGUUCCGGUCUGAUGAGUCCGUGAGGACGAAACAG: 1.23.
As for ACCGGAGGUGCAUUCCGGUCUGAUGAGUCCGUGAGGACGAAACAG, the self-cleavage came to 1.24.
Turning to ACCGGAGGUGCCUUCCGGUCUGAUGAGUCCGUGAGGACGAAACAG, the self-cleavage worked out at 1.42.
With ACCGGAGGUGCUUUCCCGUCUGAUGAGUCCGUGAGGACGAAACAG, the self-cleavage worked out at 0.552.
The same measure for ACCGGAGGUGCUUUCCAGUCUGAUGAGUCCGUGAGGACGAAACAG: 0.666; for ACCGGAGGUGCUUUCCUGUCUGAUGAGUCCGUGAGGACGAAACAG: 0.548.
The result for ACCGGAGGUGCUUUCCGGUCUGAUGAGUCCGUGAGGACGAAAUAG reads 0.389; that for ACCGGAGGUGCUUUCCGGUCUGAUGAGUCCGUGAGGACGAAAGAG, 0.427.
The result for ACCGGAGGUGCUUUCCGGUCUGAUGAGUCCGUGAGGACGAAAAAG reads 0.382; that for ACCGGAGAUGCUUUCCGGUCUGAUGAGUCCGUGAGGACGAAACAG, 1.29.
Take ACCGGAGUUGCUUUCCGGUCUGAUGAGUCCGUGAGGACGAAACAG: the self-cleavage stood at 1.36.
On to ACCGGAGCUGCUUUCCGGUCUGAUGAGUCCGUGAGGACGAAACAG, for which the self-cleavage worked out at 1.37.
The same measure for ACCGGAGGUGCUUUCCGGUCUGAUCAGUCCGUGAGGACGAAACAG: 0.363.
The same measure for ACCGGAGGUGCUUUCCGGUCUGAUUAGUCCGUGAGGACGAAACAG: 0.333.
The same measure for ACCGGAGGUGCUUUCCGGUCUGAUAAGUCCGUGAGGACGAAACAG: 0.272; for ACCGGAGGUGCUUUCCGGUCUGAUGAGUCGGUGAGGACGAAACAG: 1.19; for ACCGGAGGUGCUUUCCGGUCUGAUGAGUCAGUGAGGACGAAACAG: 1.21.
In the case of ACCGGAGGUGCUUUCCGGUCUGAUGAGUCUGUGAGGACGAAACAG, the self-cleavage came out at 1.34.
Consider ACCGGAGGAGCUUUCCGGUCUGAUGAGUCCGUGAGGACGAAACAG, for which the self-cleavage turned out to be 1.19.
As for ACCGGAGGCGCUUUCCGGUCUGAUGAGUCCGUGAGGACGAAACAG, the self-cleavage was found to be 1.18.
As for ACCGGAGGGGCUUUCCGGUCUGAUGAGUCCGUGAGGACGAAACAG, the self-cleavage came to 1.35.
Turning to ACCGGAGGUGCUUUCCGGUCUGAUGAGUCCGUCAGGACGAAACAG, the self-cleavage came to 1.23.
In the case of ACCGGAGGUGCUUUCCGGUCUGAUGAGUCCGUUAGGACGAAACAG, the self-cleavage turned out to be 1.32.
The result for ACCGGAGGUGCUUUCCGGUCUGAUGAGUCCGUAAGGACGAAACAG reads 1.34; that for ACCGGAGGUGCUUUCCGGUCUGAUGAGUCCGUGACGACGAAACAG, 0.979.
The result for ACCGGAGGUGCUUUCCGGUCUGAUGAGUCCGUGAAGACGAAACAG reads 0.654; that for ACCGGAGGUGCUUUCCGGUCUGAUGAGUCCGUGAUGACGAAACAG, 0.911; that for ACCGGAGGUGCUUUCCGGUCUAAUGAGUCCGUGAGGACGAAACAG, 0.33.
The same measure for ACCGGAGGUGCUUUCCGGUCUCAUGAGUCCGUGAGGACGAAACAG: 0.389; for ACCGGAGGUGCUUUCCGGUCUUAUGAGUCCGUGAGGACGAAACAG: 0.369; for ACCGGAGGUGCUUUCCGCUCUGAUGAGUCCGUGAGGACGAAACAG: 0.464.
For the variant ACCGGAGGUGCUUUCCGAUCUGAUGAGUCCGUGAGGACGAAACAG, the self-cleavage amounted to 0.807.
The result for ACCGGAGGUGCUUUCCGUUCUGAUGAGUCCGUGAGGACGAAACAG reads 0.46; that for ACCGGAGGUGCUUUCCGGUCUGAUGAGUCCUUGAGGACGAAACAG, 1.18; that for ACCGGAGGUGCUUUCCGGUCUGAUGAGUCCCUGAGGACGAAACAG, 0.968.
The result for ACCGGAGGUGCUUUCCGGUCUGAUGAGUCCAUGAGGACGAAACAG reads 1.25; that for ACCGGAGGUGCUUUCCGGUCUGAUGAGUCCGUGAGUACGAAACAG, 0.735; that for ACCGGAGGUGCUUUCCGGUCUGAUGAGUCCGUGAGAACGAAACAG, 0.624.
The same measure for ACCGGAGGUGCUUUCCGGUCUGAUGAGUCCGUGAGCACGAAACAG: 0.557; for ACCGGAGGUGCUUUCCGGUCUGAUGAGUUCGUGAGGACGAAACAG: 1.02.
With ACCGGAGGUGCUUUCCGGUCUGAUGAGUGCGUGAGGACGAAACAG, the self-cleavage was 0.488.
The same measure for ACCGGAGGUGCUUUCCGGUCUGAUGAGUCCGUGAGGACGAAACAC: 0.441; for ACCGGAGGUGCUUUCCGGUCUGAUGAGUCCGUGAGGACGAAACAU: 0.526.
The same measure for ACCGGAGGUGCUUUCCGGUCUGAUGAGUCCGUGAGGACGAAACAA: 0.559; for ACCGGAGGUUCUUUCCGGUCUGAUGAGUCCGUGAGGACGAAACAG: 1.46.
The same measure for ACCGGAGGUCCUUUCCGGUCUGAUGAGUCCGUGAGGACGAAACAG: 1.74; for ACCGGAGGUACUUUCCGGUCUGAUGAGUCCGUGAGGACGAAACAG: 1.72.
On to ACCGGAGGUGCUUUCCGGUCUGAUGAGUCCGUGAGGACUAAACAG, for which the self-cleavage turned out to be 0.365.
Regarding ACCGGAGGUGCUUUCCGGUCUGAUGAGUCCGUGAGGACAAAACAG, the self-cleavage came out at 0.369.
The result for ACCGGAGGUGCUUUCCGGUCUGAUGAGUCCGUGAGGACCAAACAG reads 0.293; that for ACCGGAGGUGCUAUCCGGUCUGAUGAGUCCGUGAGGACGAAACAG, 1.66.
